Assay results reported in US20150064134A1.

Key:
Assay in all cases: cell-based or functional assay
[1] = biological target: Lyn(h) (human) (UniProt P07948)
[2] = biological target: T1, IKKα(h) (human) (UniProt O15111)
T1 sequence (looked up): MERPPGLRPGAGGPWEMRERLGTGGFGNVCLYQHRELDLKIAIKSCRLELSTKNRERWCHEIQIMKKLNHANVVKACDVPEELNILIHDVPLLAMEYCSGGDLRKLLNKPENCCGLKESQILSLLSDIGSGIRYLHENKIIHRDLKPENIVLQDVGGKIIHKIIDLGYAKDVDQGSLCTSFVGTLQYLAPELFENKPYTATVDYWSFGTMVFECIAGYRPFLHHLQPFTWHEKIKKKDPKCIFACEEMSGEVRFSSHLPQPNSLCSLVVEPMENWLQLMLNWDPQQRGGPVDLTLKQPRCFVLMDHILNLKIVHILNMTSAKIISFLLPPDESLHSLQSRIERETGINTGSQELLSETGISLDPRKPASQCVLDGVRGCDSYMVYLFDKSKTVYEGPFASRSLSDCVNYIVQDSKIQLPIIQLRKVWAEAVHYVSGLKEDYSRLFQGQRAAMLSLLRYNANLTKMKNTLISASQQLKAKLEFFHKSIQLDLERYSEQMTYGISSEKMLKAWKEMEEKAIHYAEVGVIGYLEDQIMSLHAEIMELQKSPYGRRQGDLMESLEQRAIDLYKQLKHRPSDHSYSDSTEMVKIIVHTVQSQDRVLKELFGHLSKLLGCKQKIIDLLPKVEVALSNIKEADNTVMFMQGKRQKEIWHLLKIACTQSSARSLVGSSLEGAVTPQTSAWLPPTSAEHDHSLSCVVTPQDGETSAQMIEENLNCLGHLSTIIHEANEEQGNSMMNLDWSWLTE

[3] = biological target: T2, Mer(h) (human) (UniProt Q12866)
T2 sequence (looked up): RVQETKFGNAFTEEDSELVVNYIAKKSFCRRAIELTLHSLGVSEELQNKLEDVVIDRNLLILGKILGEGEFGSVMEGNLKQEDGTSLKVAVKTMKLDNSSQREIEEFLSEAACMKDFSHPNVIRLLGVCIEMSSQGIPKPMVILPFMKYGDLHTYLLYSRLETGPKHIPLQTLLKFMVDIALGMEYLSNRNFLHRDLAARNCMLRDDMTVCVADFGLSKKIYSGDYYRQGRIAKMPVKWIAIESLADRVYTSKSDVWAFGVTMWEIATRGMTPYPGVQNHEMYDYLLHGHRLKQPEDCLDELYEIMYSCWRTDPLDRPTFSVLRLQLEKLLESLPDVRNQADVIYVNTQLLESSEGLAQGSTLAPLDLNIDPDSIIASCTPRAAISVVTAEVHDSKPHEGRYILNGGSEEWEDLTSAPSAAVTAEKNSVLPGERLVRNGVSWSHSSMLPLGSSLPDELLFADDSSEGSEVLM

[4] = biological target: SAPK2a(h) (human) (UniProt Q16539)
[5] = biological target: T3, PKCζ(h) (human) (UniProt Q05513)
T3 sequence (looked up): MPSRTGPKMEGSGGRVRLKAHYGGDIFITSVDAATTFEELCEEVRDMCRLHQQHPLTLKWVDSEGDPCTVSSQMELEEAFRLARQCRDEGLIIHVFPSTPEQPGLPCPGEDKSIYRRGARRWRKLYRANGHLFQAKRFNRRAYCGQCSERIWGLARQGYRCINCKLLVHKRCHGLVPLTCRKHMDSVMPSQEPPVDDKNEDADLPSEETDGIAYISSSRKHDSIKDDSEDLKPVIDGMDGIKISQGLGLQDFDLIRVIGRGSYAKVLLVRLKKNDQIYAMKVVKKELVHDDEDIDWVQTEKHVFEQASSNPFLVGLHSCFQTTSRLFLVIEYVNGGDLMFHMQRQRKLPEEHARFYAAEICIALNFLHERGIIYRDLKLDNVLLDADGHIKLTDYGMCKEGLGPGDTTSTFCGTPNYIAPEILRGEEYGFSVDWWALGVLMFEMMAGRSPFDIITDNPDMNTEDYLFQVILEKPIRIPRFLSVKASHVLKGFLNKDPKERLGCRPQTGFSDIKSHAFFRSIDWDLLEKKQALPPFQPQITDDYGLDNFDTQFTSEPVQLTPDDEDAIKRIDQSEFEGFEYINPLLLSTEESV

[6] = biological target: MINK(h) (human) (UniProt Q8N4C8)
[7] = biological target: mTOR(h) (human) (UniProt P42345)
[8] = biological target: cKit(D816H)(h) (human) (UniProt P10721)
[9] = biological target: PDGFRβ(h) (human) (UniProt P09619)
[10] = biological target: Rsk1(h) (human) (UniProt Q15418)
[11] = biological target: PKBβ(h) (human) (UniProt P31751)
[12] = biological target: T4, PrKX(h) (human) (UniProt P51817)
T4 sequence (looked up): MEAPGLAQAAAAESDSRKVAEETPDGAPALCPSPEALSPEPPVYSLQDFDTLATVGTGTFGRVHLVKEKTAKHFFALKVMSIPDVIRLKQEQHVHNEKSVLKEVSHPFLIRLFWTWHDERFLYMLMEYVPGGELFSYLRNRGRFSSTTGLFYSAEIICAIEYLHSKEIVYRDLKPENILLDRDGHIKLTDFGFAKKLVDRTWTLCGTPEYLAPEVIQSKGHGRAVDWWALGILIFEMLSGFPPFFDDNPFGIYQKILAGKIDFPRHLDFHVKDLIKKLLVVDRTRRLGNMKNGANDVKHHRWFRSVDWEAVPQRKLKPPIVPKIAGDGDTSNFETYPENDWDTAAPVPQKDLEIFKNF

[13] = biological target: EGFR(L861Q)(h) (human) (UniProt P00533)
[14] = biological target: PKCβI(h) (human) (UniProt P05771)
[15] = biological target: EphB3(h) (human) (UniProt P54753)
EphB3(h) (human), sequence (P54753 581-998 limits assumed): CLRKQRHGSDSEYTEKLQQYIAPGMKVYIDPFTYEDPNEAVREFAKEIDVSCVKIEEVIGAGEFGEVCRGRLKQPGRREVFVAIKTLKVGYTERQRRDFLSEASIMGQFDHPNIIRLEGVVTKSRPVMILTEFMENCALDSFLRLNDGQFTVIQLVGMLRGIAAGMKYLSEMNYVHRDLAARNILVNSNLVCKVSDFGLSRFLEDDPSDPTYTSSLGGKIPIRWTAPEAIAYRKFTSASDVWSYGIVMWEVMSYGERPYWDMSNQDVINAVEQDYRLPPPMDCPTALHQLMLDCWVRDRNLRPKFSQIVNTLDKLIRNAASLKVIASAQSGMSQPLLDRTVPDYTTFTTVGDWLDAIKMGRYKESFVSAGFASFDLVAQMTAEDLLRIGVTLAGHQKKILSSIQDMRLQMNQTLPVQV

cKit(D816H)(h) (human), sequence (P10721 544-976 D816H): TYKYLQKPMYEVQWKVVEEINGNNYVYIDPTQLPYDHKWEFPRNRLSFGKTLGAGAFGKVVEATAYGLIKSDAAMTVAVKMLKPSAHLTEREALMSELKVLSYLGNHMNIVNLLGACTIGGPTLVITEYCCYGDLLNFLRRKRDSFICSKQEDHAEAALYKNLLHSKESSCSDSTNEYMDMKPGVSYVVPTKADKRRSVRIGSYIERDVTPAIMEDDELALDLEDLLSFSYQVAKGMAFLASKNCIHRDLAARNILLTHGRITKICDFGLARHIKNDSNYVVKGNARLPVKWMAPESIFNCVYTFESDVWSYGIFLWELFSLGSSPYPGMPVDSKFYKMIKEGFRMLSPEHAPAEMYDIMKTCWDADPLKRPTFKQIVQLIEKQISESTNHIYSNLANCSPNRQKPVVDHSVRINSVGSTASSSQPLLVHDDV
SAPK2a(h) (human), sequence (Q16539 whole entry): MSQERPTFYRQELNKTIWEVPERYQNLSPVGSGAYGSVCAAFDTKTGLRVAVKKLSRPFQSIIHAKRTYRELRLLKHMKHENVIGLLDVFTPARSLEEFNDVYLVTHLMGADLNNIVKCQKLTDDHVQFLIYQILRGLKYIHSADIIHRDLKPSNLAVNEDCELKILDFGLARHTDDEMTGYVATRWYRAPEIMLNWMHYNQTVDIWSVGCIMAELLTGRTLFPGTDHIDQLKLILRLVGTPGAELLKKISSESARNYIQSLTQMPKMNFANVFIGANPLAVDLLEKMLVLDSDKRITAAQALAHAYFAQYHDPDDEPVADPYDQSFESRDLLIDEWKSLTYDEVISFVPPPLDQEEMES
PDGFRβ(h) (human), sequence (P09619 557-1106 limits assumed): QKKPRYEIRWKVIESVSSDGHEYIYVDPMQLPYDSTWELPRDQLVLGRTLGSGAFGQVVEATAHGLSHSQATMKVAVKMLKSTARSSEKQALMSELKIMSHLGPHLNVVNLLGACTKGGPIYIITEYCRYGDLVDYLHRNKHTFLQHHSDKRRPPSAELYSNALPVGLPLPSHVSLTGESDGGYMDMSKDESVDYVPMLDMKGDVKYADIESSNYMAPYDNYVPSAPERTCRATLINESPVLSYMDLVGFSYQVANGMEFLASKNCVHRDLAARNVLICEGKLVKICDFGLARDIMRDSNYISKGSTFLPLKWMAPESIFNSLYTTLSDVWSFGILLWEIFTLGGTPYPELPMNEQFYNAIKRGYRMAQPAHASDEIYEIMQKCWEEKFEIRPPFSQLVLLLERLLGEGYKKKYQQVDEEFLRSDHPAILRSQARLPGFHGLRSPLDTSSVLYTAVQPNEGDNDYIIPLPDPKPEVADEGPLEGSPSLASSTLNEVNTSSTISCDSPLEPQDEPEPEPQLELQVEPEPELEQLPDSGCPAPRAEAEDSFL
PKBβ(h) (human), sequence (P31751 whole entry): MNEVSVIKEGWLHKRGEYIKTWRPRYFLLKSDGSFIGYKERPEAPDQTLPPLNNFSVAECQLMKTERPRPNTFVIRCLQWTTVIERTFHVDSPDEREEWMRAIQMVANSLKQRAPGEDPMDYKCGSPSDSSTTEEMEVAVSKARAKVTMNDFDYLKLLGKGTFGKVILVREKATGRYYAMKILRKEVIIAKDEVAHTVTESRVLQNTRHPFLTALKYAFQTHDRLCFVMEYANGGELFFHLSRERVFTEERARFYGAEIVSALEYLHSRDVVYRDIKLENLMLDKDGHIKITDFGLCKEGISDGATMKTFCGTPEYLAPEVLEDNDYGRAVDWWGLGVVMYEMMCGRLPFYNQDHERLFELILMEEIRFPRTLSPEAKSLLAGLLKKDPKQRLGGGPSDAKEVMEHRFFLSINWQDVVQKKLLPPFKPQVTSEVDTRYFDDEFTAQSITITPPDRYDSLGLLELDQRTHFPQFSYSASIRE
mTOR(h) (human), sequence (P42345 1362-2549 limits assumed): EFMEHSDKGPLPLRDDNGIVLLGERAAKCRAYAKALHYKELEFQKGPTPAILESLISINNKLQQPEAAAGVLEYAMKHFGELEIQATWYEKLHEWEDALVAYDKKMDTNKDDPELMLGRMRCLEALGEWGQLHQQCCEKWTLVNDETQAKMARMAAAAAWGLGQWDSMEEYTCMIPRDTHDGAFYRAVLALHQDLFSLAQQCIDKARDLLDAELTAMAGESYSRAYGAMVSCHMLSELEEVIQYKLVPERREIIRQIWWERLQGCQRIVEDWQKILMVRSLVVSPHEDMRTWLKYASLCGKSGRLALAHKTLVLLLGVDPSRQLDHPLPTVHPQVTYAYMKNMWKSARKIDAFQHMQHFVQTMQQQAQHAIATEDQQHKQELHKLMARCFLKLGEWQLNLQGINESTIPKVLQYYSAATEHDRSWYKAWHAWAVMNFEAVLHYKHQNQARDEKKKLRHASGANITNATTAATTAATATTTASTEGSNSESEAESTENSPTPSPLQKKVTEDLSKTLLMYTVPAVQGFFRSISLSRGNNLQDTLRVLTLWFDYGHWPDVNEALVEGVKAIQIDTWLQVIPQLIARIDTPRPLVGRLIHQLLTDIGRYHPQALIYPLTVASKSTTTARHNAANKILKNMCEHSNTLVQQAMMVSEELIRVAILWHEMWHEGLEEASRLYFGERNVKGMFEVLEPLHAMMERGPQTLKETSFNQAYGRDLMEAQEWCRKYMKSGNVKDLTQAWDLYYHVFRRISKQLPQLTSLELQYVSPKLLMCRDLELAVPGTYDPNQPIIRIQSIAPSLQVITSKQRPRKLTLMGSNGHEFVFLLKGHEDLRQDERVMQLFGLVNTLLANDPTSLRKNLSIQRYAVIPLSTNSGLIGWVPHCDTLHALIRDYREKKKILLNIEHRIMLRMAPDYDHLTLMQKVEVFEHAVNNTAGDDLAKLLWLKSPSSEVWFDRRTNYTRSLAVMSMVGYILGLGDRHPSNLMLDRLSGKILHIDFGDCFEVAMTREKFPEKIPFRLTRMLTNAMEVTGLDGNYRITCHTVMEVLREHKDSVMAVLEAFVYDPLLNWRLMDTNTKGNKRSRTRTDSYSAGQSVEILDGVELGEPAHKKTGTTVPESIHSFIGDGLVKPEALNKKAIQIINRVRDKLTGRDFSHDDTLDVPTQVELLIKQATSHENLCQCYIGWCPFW
Rsk1(h) (human), sequence (Q15418 whole entry): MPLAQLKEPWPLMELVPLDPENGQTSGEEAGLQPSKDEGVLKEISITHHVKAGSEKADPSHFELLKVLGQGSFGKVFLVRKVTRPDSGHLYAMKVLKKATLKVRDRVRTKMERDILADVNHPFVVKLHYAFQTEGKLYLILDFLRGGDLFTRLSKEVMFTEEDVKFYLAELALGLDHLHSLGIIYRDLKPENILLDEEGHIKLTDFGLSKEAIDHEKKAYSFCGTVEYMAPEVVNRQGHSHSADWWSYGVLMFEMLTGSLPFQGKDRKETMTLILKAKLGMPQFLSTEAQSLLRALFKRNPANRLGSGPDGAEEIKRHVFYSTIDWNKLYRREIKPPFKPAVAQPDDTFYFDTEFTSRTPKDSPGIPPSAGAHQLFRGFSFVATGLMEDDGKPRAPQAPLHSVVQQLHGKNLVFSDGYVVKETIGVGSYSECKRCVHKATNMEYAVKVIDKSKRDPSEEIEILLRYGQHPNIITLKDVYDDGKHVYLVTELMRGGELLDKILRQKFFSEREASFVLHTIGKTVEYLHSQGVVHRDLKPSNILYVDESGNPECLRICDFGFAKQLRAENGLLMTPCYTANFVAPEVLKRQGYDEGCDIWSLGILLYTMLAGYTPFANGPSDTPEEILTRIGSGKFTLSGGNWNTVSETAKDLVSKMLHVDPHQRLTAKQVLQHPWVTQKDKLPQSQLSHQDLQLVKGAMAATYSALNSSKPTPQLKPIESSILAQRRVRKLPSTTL

| % activity at 100 µM [1] | % activity at 100 µM [2] | % activity at 100 µM [3] | % activity at 100 µM [4] | % activity at 100 µM [5] | % activity at 100 µM [6] | % activity at 100 µM [7] | % activity at 100 µM [8] | % activity at 100 µM [9] | % activity at 100 µM [10] | % activity at 100 µM [11] | % activity at 100 µM [12] | % activity at 100 µM [13] | % activity at 100 µM [14] | % activity at 100 µM [15] | Substance |
| --- | --- | --- | --- | --- | --- | --- | --- | --- | --- | --- | --- | --- | --- | --- | --- |
| 3% | 87% | 50% | 85% | 75% | 52% | 93% | 143% | 53% | 54% | 98% | 76% | 22% | 78% | 47% | MMI-0400 (peptide) |
| 31% | 50% | 17% | 52% | 7% | 5% | 135% | 194% | 40% | 34% | 21% | 57% | 15% | 1% | 79% | MMI-0500 (peptide) |
| 69% | 93% | 52% | 90% | 81% | 48% | 91% | 126% | 81% | 46% | 84% | 61% | 25% | 78% | 62% | MMI-0300 (peptide) |
